Tests used:
[1] = target: p53 (Santa Cruz sc-4246) (UniProt P04637); assay: LSPR fiber tip probe, first of three devices, Langmuir fit
[2] = target: p53 (Santa Cruz sc-4246) (UniProt P04637); assay: LSPR fiber tip probe, third of three devices, Langmuir fit
[3] = target: p53 (Santa Cruz sc-4246) (UniProt P04637); assay: LSPR fiber tip probe, shift vs. concentration, Langmuir fit
[4] = target: p53 (Santa Cruz sc-4246) (UniProt P04637); assay: LSPR fiber tip probe, second of three devices, Langmuir fit
[5] = target: p53 (Santa Cruz sc-4246) (UniProt P04637); assay: LSPR fiber tip probe, antibody on gold nanorod, 1 nM p53 in PBS
[6] = target: p53 (Santa Cruz sc-4246) (UniProt P04637); assay: LSPR fiber tip probe, antibody on gold nanorod, 18.92 nM p53 in PBS
[7] = target: p53 (Santa Cruz sc-4246) (UniProt P04637); assay: LSPR fiber tip probe, shift vs. concentration, Langmuir fit (FIG. 3B)
[8] = target: p53 (Santa Cruz sc-4246) (UniProt P04637); assay: UV-Visible spectroscopy of antibody-coated gold nanorods in solution, resonance shift vs. concentration, Langmuir fit

UniProt P04637, sequence (P04637 whole entry): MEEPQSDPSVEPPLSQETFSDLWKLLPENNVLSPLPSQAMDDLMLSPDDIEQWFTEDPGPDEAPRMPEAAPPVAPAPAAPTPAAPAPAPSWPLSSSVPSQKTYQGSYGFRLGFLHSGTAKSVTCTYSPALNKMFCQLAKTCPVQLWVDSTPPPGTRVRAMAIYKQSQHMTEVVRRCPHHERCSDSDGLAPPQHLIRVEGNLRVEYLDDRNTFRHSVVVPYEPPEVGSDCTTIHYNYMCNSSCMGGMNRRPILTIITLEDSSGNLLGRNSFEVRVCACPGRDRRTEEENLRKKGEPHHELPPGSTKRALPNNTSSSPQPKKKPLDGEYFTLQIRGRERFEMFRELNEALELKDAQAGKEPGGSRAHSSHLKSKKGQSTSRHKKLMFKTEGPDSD

Kd [1]: 5.5 nM
Kd [2]: 7.1 nM
Kd [3]: 5.5 nM
Kd [4]: 4.2 nM
LSPR shift [5]: 0.55 nm
LSPR shift [6]: 5.13 nm
Kd [7]: 5.4 nM
Kd [8]: 4.3 nM
Substance: p53 antibody (Santa Cruz sc-126)
